According to paper doi:10.1101/2023.09.11.557127:

Biological target: human wild-type 5-HT1AR with C-terminal ARMS2-PK2 (5-HT1AR-ARMS2-PK2) (human) (UniProt P08908)
Experiment: split reporter

Sequence of UniProt P08908 (P08908 whole entry): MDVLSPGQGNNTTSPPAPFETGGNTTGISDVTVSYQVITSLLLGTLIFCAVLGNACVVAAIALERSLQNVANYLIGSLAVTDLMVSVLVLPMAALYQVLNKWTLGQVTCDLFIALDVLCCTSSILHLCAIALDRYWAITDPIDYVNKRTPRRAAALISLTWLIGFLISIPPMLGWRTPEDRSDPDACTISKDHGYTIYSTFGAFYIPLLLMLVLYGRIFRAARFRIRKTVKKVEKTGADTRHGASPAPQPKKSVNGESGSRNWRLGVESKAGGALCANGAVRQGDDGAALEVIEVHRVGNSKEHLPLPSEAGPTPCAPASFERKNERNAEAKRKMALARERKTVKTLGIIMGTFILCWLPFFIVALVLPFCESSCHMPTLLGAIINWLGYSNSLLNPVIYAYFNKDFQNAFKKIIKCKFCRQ

Emax of recruitment with ST171, elevated GRK2 (% of serotonin): 15%
Emax of recruitment with ST171, native GRK2 (% of serotonin): < 5%
Emax of recruitment with befiradol, elevated GRK2 (% of serotonin): 96%
Emax of recruitment with befiradol, native GRK2 (% of serotonin): 67%
Substance: β-arrestin-2-EA (from UniProt P32121 1-409) (natural protein)
